Data reported in a protein production outcome set (Wang et al. 2014).

Assay: label from the status in PepcDB records

Row | Sequence | protein production
1 | MTGFDADDAAALIQSYVDDHGLLSFLGVSVEDASDGEMRLRIPYHEKLTNHGPGEGDVHGGIAATLIDTAGGLAVRSALPKPVAANVATIDLNVSYLRPARGDLIADASVVRVGSTVGVAEISVVTPADTADAEPTEVAVGRGSFRVFRDDLEHHHHHH | failed
2 | MLKLAQAEEAEAKRGKLKIFLGYAAGVGKTYAMLQAARERRHEGRDVVAAYVESHGRPETDALLEGLEILPAARIEYQGVMLPELDIDGVLARRPQLALVDELAHTNAPGSRHEKRWQDVEELLAAGIDVFTTVNVQHFESLNDVVAQITGIAVRETVPDRLLDLAAEIRLVDIPPEDLLQRLREGKVYVPEQAAFAAEKFFRAGNLIALRELSLRRAAVRVDEEMRAYMEARAIPGPWPAAERLLVSISGSPFSERLIRTTRRLADELKAPWFTVYVETPGNGRHEQENRKRVWKDLRLAESLGAQVATVTATSVAEALIDYARRHNVTRIVVGKPAKPRWREFLRLPLVDRIIRLSGAIDVHVVSYEPAEAGKGPVLPVRRGPISFSGYLASLALVVAASLACLLLRPFLAPTNMVMIYLLAVVLAALRLGLKPAILTAFLGVLAFDFFFIPPHLTFAVADTQYLITFVALFTVGVVISTLVSTVRERAEAVREREEQTASLYYLSRDLAAAADIETLVAAVIRNIGETLFARAAVLLPEGDRLRVAAASKGLKPDVKEMAVADWAFRNRQTAGQGTETLASAGFLYLPLQTSGSVLGVLGVRLKNDADYRSTQVRRMLDAFTSQTAMALERVQLSRQAEQAQILQARENLERALLNSISHDLRTPLVAITGALDTLRDKVHTLADESRLELLDTAWEEAERLNRFVGNLLDMTRLESGAIKLKRELSDVQDLIGCALAALERRIGERGIDVRLAPDLPLVRIDMVLMTQVLVNLLDNALKYSPPDSGVEITARVDGGRLRIEMADRGPGIPEQDLKRVFDKFYRIAVPEGAQGTGLGLSICKGIVEAHGGSIRAENRTGGGLRVIVTLPLAGGAKEGVSHGP | failed
3 | MIELLFPGWLAGILLAIAAGPLGSFVVWRRMSYFGDTLAHASLLGVAFGLLLNINLFSAVIAVTLILALGLVWLERRPYLAVDTLLGIMAHSALSLGLVVVSLMNNVRVDLMAYLFGDLLSVTTEDLWVIGAGVIIVVAVMRWQWRALLSMTISPELAHVDGVKIQRTKLLLMLTTALTIGIAMKFVGALIITSLLIIPAASARRFARTPEQMAIIAVMIGMIAVTGGLAFSAGYNTPAGPSVVLCASLLFIVSLLKPQPA | failed
4 | MDSGRLAVIALGGNAIAGPGMDVSVESQTAAVKRASSIIADVLADGWRSVITHGNGPQVGYLSEAFEALPPERPRQPLYIATAMTQAWIGLLLKHSLEEELRRRGLNVLVPVVISRVLVDVSDPSFNNPSKPVGPIYGREEAEELSRRYGWVFKRDPRGGFRRVVPSPRPVSIVDRDLIAEASAESPAVVALGGGGVPVVERPGGVLEPVEAVVDKDLASSLLATQLNADLLVILTDVPGVAVNYGREGERWLRRAAASELKKYLREGHFPPGSMGPKVEAAISFVERTGKPAVIGSLEEARQVLSLQAGTVVMLG | not failed
5 | MGHHHHHHSHIEETTMTTQTPAPIQAPSAILPLPGQSVERLCVDPRHRQGPVNLLSDPEQGVEVTGQYEREKAGFSWIEVTFKNPLVWVHASPEHVVVTRNRRSSAYKWKETLFSVMPGLKMTMDKTGLLLLSDPDKVTIGLLFWDGRGEGLRLLLRDTDRFSSHVGGTLGQFYQEVLWGSPAASD | failed
6 | MLAKSLGWLLAVSRRNYCMGSRTALASRPWSKHLADPQIDPTAYVHSFANVVGDVRIQPGVSVAPGSSIRADEGTPFWIGGNVLIQHGVVIHGLETGRVLGDDDQEYSVWIGPGTCVAHLALVHGPVYLGANCFIGFRSTVLNARVGDGAVVMMHSLVQDVEIPPNKLVPSGAMITQQHQADSLPDVQAGDRHFVQQIAAMHGQSASPTQGTDPTVCVLPESLPAVTPVTETPYINSIDNMSINSDITNQIRSLLAQGYGIGAEHANERRFKTKSWQSCGTADGFRPDQVIATVEGWLQEFAGEYVRLIGIDQGAKRRVVEVIIQRPGDVPGSPSRGTTTTKALSSGGSGRSAVAHQTGNLAGDSANQLRALLHQGYKIGLEYASARRFKTGSWLTGGTIGSHREGEALQELNRFLADHTNEYVRIIGIDPAGKRRVAEIVVHRPNGNGNGKPSSSSSSVGYKSAPVSSAGGSSAGGLTPEVIATVRGLLANGHSIGTEHTDKRRFKAKSWDTCPTIDGGREAEVLAKLEACLADHAGEYVRIIGIDRVGKRRVLEQIIQRPGDNVVAGRSPSSSSASTSSSASSNGFGSGNGGGYSNSAVRLDNSVVTQVRSLLAQGYKIGTEHTDKRRFKAKSWQSCAPITSTHESEVLRALEGCLADHNGEYVRLLGIDPTAKRRVLETIIQRP | failed
7 | MDYCYTGDTHEKLFAAYRADEEPFPTQTQMEFPRREHRRPEIDILKRLFFPTCWNAAELVRDELAVLDRLDTLGGLFFAGIRPYSGSDPAETVDAVIDQLPAVRTRLKKDVEAAFKGDPAAKTYMEIIRSYPGFMAILVQRVAHTLYEAGASEYARELTEYAKTETGIDIHPGAEIGDHFFIDHGTGVVIGETTTVGEWVRLYQDVTLGALHFEADESDEHRLKKGYKRHPDIGDHVVIGAGTKVLGAISVGDHVSIGANSWVTDDIPDDTKVYVTDHPTQERKRTN | failed
8 | MSNFSEGEIFIANIEKKSLECRENDEIVVLKICELCNIIYPIFNKIFGNGFVGDTLKKDLKNSSSQVQRAIEKFPEETKYVSMLYSYNINKYENMEKLKRDLDNGIISFLWMKRTLEFIITFLEKCYITCSETKLSICAQEAYNEVLKKYHGFITSKIVKLCLKLSPTKDILTKKLGFQTHQQASTVLQKCLSITKPLVRDISVTIEKFNCDFEEKI | failed
9 | MLENIRIVLIETSHSGNIGSAARAMKTMGLTQLCLVSPKSVDEQSYALSAGAENIVKNARVVDSFDEAVDDCPLVIGTSARLRHLQNTLIEPRECAEKVVAYKGKIAIVFGRERIGLTNEELLKCHYHLNIPANPDYSSLNLAMAVQLVSYELRMAFLVQNNKKNSLSLIEKNYPTTDQLAYFFDYTERIYQSLGFIQNQGVMRKLKRLYYRAKLEKNELNILNGMLSAVEKRIDLTKEDN | not failed
10 | MVHHDGTLQALITAYQKTPAFTDLAEATRKGYIRHIRQIEADFGDMPVQALADPRVRGEFLDWRDRLAQKSKRSADYAFSVLARILSWAHDRRKIPVNPCEKPGRLEHHHHHH | failed
11 | MQTRLATKQDIDTLATLERQHLNDELISGGFHLEGQAFTRTELTQLVEKHWIVVAEVNGRIIGYVIAGRWSFFETWPIYRNMLQRLNRMNGDGPQLTTQNSCQYGPIWIDNAHRGQGVFEALIAGIYREVAPSFDYMVTFIADENERSLAAHTRKANM | failed
12 | MKWVTYRSDHGERTGVLSGDAIYAMPPDVSLLDLVGRGADGLRTAGERAVRSPAAVVALDEVTLAAPIPRPPSIRDSLCFLDHMRNCQEAMGGGRVLMDTWYRIPAFYFACPSTVLGPYDDAPTAPGSAWQDFELEIAAVIGTSGKDLTVEQAERSIIGYTIFNDWSARDLQMLEGQLRIGQAKGKDSGITLGPYLVTPDELEPYCRGGKLSLRVIALVNGTVIGSGSTAQMDWSFGEVIAYASRGVTLTPGDVFGSGTVPTCTLVEHLRPPESFPGWLHDGDVVTLQVEGLGETRQTVRTSGTPFPLALRPNPDAEPDRRGVNPAPTRVPFTRGLHEVADRVWAWTLPDGGYGFSNAGLVAGDGASLLVDTLFDLALTREMLAAMKPVTERAPITDALITHSNGDHTHGTQLLDRSVRIIAAKGTSEEIEHGPAPEMLARIQTADLGPVATRYLRDRFGHFDFSGIKLRNADLTFDRDLAIELGGRRVDLLNLGPAHTTADSVVHVADAGVLFAGDLLFIGCTPIVWAGPIANWVAACDAMIALDAPTVVPGHGPVTGPDGIRAVRGYLAHIAEQAEAAYRKGLSLPEAVETIDLGEYASWLDSERVVVNVYQRYRELDPDTPRQDLLALLVMQAEWAARHCT | failed
13 | PQPKIGILLANLGTPDNYDYWSMRRYLNEFLSDKRVIDYPAWKWQPLLQILILSKRPFSSGANYKLIWNHDKGESPLMTITKDQTAAIAAEIRSLYGNRVMVDFCMRYGNPSTESRVRAMVEAGCEKILFFPLYPHYAGATSATANDEFFRAMMKEKRQPAVRTVPEYYDNPLYIDALAQSVERAYAQLDHRPDVLVASYHGMPKRYLMAGD | failed
14 | MSRVHNRALSAAELQSFGDELDAIRARVLSQVGAADARYIRRIVAAVRWTGVAGRALLFLGAFVHSVLIPAWIAGVLLLALSKILENMELGHNVMHGQYDWMGDPQLNGNTYEWDIVATGDNWRKTHNFKHHTYTNVRGMDDDIGYGLLRIFPEQRWRPFYLLQPFIAVVFALLFEWGVAIQDLRLGRWFAGKMKAAELRASFLPVGRKMGRQMLKDYIVFPLLAGPFFLTVLLGNLAANVLRSIWTFVIIFCGHFTADAEVFPKESIRNESRGHWYLRQLRGSSNLTGGKLMNVLSGNLSHQIEHHFYPDLPANRYAQIAVEVKQVCARYGQHYNTGSLPRQFGQVMWRIVRHAFPSRPKPVRQGSGALQSA | failed
15 | MVKYAKTPKSFINIKDLGFALLETDELDGTIKYSNVTQTRGLQEISVETGGEIVNAYADGSIIESGTTDGEGKISMTMHAFPQEIRELIFNEIYNEAGVYSEERGKQNNYVAVWFKRERRDGSYQQVGLTKVMFADPNLEGKTAEEDWEFSSEESEGTAMHRIADGKRKILFDSSREGANVDSFFQELLNGAYDSKTEVDTGDSTTGESAAEALEHHHHHH | failed
16 | MNKQQQSMNTNRSAQEMSETSPEYEQKYQQAIDCIENQEYGQAISILDELAGEASRDAKLRYARAVALLSNGEYRRAGTDLAFTVALDRSNLEAYRHLGFVLLTMGKEEAAIKVLEEALRRDPCFVEAWCVLADVHMDLGEHDKALDALDRAHELQPGNAEVHCKLAMYYMSRGDMRGLRAEYEVLREIEPDVAAQIAELLP | failed
17 | MAKEIKFSDSARNLLFEGVRQLHDAVKVTMGPRGRNVLIQKSYGAPSITKDGVSVAKEIELSCPVANMGAQLVKEVASKTADAAGDGTTTATVLAYSIFKEGLRNITAGANPIEVKRGMDKAAEAIINELKKASKKVGGKEEITQVATISANSDHNIGKLIADAMEKVGKDGVITVEEAKGIEDELDVVEGMQFDRGYLSPYFVTNAEKMTAQLDNAYILLTDKKISSMKDILPLLEKTMKEGKPLLIIAEDIEGEALTTLVVNKLRGVLNIAAVKAPGFGDRRKEMLKDIAILTGGQVISEELGLSLENAEVEFLGKAGRIVIDKDNTTIVDGKGHSHDVKDRVAQIKTQIASTTSDYDKEKLQERLAKLSGGVAVIKVGAASEVEMKEKKDRVDDALSATKAAVEEGIVIGGGAALIRAAQKVHLNLHDDEKVGYEIIMRAIKAPLAQIAINAGYDGGVVVNEVEKHEGHFGFNASNGKYVDMFKEGIIDPLKVERIALQNAVSVSSLLLTTEATVHEIKEEKAAPAMPDMGGMGGMGGMGGMM | failed
18 | MVNYKEKLDEAIHLTQQKGFEQTRAEWLMLDVFQWTRTDFVVHMHDDMPKAMIMKFDLALQRMLLGEPIQYIVGFASFYGRTFDVNSNCLIPRPETEEVMLHFLQQLEDDATIVDIGTGSGVLAITLKCEKPDLNVIATDISLEAMNMARNNAEKHQSQIQFLTGDALKPLINEGIKLNGLISNPPYIDEKDMVTMSPTVTRFEPHQALFADNHGYAIYESIIEDLPHVMEKGSPVVFEIGYNQGEALKSIILNKFPDKKIDIIKDINGHDRIVSFKW | failed
19 | MKILIDGDACPKAVLQICLKKGRQYGIPVWTVASFNHEIASDHHIVVGNAPQETDLKVVNLSEAGDIIVTQDIGLAAMVLGKGARALSPTGKEYRPESIANLLEERELKAKYRRSLEHHHHHH | not failed
